Target: T1, recombinant His-tagged AGO2 (UniProt Q9UKV8 1-859)
T1 construct: AGO2 (argonaute 2); Detected on the array by an HRP-conjugated 6xHis antibody; amine-coupled to a CM5 chip in the SPR; also called His-AGO2; AGO2 recombinant protein; source: recombinant, purified
Test: SPR; Biacore T200; His-AGO2 immobilised on a CM5 chip by amine coupling (~7000 RU); peptides 20 to 1280 nM in HBS-P (10 mM HEPES, 150 mM NaCl, 0.005% T20, pH 7.4), 30 µL/min; Langmuir 1:1 model
Conditions: both partners purified

T1 sequence (Q9UKV8 whole entry): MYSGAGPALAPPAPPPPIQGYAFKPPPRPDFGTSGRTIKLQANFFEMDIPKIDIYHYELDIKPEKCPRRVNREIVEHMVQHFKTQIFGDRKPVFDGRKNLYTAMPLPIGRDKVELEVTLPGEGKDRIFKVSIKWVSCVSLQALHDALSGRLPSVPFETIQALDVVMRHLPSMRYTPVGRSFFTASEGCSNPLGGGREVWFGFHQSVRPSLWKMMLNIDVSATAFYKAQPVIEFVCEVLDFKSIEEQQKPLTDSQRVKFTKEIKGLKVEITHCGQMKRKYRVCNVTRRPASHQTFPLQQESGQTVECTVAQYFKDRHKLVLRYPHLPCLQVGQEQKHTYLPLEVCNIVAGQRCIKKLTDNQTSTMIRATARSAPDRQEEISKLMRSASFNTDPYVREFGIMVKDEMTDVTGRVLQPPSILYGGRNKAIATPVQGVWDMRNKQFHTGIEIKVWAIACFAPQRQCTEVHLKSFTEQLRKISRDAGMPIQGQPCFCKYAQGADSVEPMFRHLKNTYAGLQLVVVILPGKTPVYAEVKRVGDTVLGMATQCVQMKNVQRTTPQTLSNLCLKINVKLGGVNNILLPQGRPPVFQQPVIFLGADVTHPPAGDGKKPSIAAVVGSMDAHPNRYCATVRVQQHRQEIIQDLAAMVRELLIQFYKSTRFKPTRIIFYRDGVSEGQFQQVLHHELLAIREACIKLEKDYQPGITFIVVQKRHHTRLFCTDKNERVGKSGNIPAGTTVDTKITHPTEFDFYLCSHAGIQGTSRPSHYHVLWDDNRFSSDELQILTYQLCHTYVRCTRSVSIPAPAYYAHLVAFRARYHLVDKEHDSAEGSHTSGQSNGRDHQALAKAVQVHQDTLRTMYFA

Binder	Kd
YQFPEFRVERTPLPS [Pep#11 (decoy peptide as used in the SPR)]	515 nM
HSLGGPLIATAFTNG [Pep#26 (decoy peptide as used in the SPR)]	674 nM
